Test results: patent US7893197B2, “Relaxin-3 chimeric polypeptides and their preparation and use” (Janssen Pharmaceutica N.V., priority 2005, dated 2011)

Legend:
[1] = target: T1, GPCR135 (Homo sapiens, UniProt Q9NSD7); experiment: Radioligand competition binding, [125I]-relaxin-3, membranes of transfected COS-7 cells; conditions: for binding / affinity for GPCR135, in words: highest concentration 1 μM
T1 construct: expressed in transfected cells
T1 sequence (Q9NSD7 1-469): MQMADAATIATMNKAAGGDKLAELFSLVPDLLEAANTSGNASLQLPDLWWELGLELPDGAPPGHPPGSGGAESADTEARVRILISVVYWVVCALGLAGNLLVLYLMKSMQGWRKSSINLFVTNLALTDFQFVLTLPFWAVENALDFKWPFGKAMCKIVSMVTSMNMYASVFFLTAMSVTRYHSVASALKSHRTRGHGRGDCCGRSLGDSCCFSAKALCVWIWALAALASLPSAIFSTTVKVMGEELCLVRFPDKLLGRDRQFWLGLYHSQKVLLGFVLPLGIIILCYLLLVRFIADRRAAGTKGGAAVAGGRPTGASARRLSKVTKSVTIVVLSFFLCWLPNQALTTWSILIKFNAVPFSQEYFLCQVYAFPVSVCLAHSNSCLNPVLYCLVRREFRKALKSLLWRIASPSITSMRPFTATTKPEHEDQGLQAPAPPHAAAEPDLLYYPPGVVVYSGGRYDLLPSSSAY
Method: For GPCR135, GPCR142, and LGR7, [^125I]-relaxin-3 was used as the radioligand at a final concentration of 100 pM. Different unlabeled peptides were used in the binding assay as the competitors. […] Different unlabeled peptides including relaxin-3 chimeras at various concentrations were added to the binding assay as the competitors.

[2] = target: T2, LGR8 (Homo sapiens, UniProt Q8WXD0); experiment: Radioligand competition binding, [125I]-INSL3, live transfected COS-7 cells; conditions: highest concentration 1 μM
T2 construct: Human LGR8 cDNA containing the complete coding region was PCR amplified; expressed in transfected cells
T2 sequence (Q8WXD0 whole entry): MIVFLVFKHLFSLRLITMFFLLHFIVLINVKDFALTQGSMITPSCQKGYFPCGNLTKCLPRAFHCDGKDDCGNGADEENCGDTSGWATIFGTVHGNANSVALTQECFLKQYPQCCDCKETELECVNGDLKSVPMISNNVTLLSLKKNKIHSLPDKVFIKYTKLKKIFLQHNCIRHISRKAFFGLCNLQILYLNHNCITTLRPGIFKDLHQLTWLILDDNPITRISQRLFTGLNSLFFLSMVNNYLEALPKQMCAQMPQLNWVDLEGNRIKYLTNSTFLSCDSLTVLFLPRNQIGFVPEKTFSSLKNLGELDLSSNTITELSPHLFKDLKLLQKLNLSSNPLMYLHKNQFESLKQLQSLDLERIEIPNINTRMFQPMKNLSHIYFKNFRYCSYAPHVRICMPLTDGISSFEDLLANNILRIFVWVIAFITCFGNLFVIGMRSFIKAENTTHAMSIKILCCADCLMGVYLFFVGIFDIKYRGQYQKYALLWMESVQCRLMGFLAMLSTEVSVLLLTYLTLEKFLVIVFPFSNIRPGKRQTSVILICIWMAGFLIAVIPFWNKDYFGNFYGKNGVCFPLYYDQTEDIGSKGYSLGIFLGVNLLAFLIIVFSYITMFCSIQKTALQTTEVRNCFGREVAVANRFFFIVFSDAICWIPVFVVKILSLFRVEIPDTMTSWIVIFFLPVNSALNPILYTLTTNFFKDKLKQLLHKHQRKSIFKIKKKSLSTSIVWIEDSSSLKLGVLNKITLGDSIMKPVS
From the text: (§1) FIGS. 3A-3D illustrate the characterization of various relaxin-3 chimeric polypeptides using radioligand binding assays. Different relaxin-3 chimeric polypeptides were characterized for their receptor binding properties for human recombinant GPCR135 (FIG. 3A), GPCR142 (FIG. 3B), LGR7 (FIG. 3C), or LGR8 (FIG. 3D). For GPCR135, GPCR142, and LGR7, [^125I]-relaxin-3 was used as the radioligand at a final concentration of 100 pM. Different unlabeled peptides were used in the binding assay as the competitors. For LGR8, [^125I]-INSL3 was used as the radioligand at a final concentration of 100 pM. Different unlabeled peptides including relaxin-3 chimeras at various concentrations were added to the binding assay as the competitors. Data represent mean±SEM (n=3).
Radioligand binding assays for LGR7 and LGR8 were performed using live COS-7 cells transiently transfected with LGR7 or LGR8 expression plasmids in 15-cm culture dishes using LipofectAmine (Invitrogen). Two days after transfection, the transfected cells were detached from the 15-cm culture dished using phosphate buffered saline (PBS) plus 10 mM EDTA, seeded into 96-well opaque poly-D-lysine coated culture plates and used for radioligand binding assays. For LGR7, [^125I]-relaxin-3 was used as the tracer. For LGR8, [^125I]-INSL3 (specific activity: 2200 Ci/mmol) was used as the tracer. [^125I]-labeled tracer was added in binding reactions at a final concentration of 100 pM in binding buffer containing DMEM plus 50 mM HEPES and 1% bovine serum albumin. Unlabeled relaxin-3 and relaxin-3 chimeric polypeptides were added at various concentrations to the binding assays as the competitors, as indicated (FIG. 3). The binding mixtures were incubated at room temperature for 1 hour. The unbound radioligand was removed by aspiration of the binding buffer. The cells were washed with PBS. The bound radioligand was counted in a scintillation counter (TopCount/NTX). The results were analyzed using Prism 3.0 program (Graphpad, San Diego, Calif.). The IC50 values represent the ligand concentrations that inhibit 50% of the maximum specific binding.

[3] = target: T3, GPCR142 (Homo sapiens, UniProt Q8TDU9, L329S); experiment: Radioligand competition binding, [125I]-relaxin-3, membranes of transfected COS-7 cells; conditions: for binding / affinity for GPCR142, in words: highest concentration 1 μM
T3 construct: expressed in transfected cells
T3 sequence (Q8TDU9 whole entry L329S): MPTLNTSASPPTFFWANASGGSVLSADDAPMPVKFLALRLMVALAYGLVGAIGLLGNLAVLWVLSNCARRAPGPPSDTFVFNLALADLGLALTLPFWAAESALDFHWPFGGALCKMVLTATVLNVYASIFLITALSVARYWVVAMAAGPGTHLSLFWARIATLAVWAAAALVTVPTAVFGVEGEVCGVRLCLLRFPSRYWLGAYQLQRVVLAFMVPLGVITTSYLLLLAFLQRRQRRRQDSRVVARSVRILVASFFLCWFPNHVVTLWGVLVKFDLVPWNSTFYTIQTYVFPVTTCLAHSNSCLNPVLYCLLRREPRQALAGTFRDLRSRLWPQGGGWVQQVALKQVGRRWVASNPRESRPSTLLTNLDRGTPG
From the text: as §1
Radioligand binding assays for GPCR135 and GPCR142 were performed as previously described (Liu et al., 2003, Journal of Biological Chemistry, 278:50754-50764 and Liu et al., 2003, Journal of Biological Chemistry, 278:50765-50770). Membranes from COS-7 cells transiently transfected with either the GPCR135 expression vector or the GPCR142 expression vector, each described supra, were incubated with [^125I]-relaxin-3 at a final concentration 100 pM in 96-well plates. Peptides for competition binding studies were added to the binding mix (final volume: 200 μl) in binding buffer [50 mM Tris-HCl, pH 7.5, 5 mM EDTA, 1% bovine serum albumin, 0.1% protease inhibitor cocktails (Sigma)]. The binding mixtures were incubated at room temperature for 1 hour, filtered through GFC plates (Packard) pre-saturated with 0.3% Polyethylenimine (Sigma), and washed with cold washing buffer (50 mM Tris-HCl, pH 7.5, 5 mM EDTA). Microscint-40 was added to each well and the bound [^125I]-relaxin-3 was counted in a scintillation counter (TopCount/NTX, Packard).

| Substance | binding / affinity for GPCR135, in words [1] | binding affinity for LGR8, in words [2] | binding / affinity for GPCR142, in words [3] | affinity for GPCR135 ([1]; discussion) | affinity for GPCR142 ([3]; discussion) |
| --- | --- | --- | --- | --- | --- |
| R3/I4: chimeric polypeptide: human relaxin-3 B-chain and INSL4 A-chain; mature polypeptide SEQ ID NO:22 (RAAPYGVRLCGREFIRAVIFTCGGSRWFDPFCCEVICDDGTSVKLC; Human Relaxin-3/Insulin-like 4 chimeric mature polypeptide) | marginal binding at the highest concentration (1 μM) | no binding affinity | marginal binding at the highest concentration (1 μM) | – | – |
| R3/I5: chimeric polypeptide: human relaxin-3 B-chain and INSL5 A-chain; mature polypeptide SEQ ID NO:23 (RAAPYGVRLCGREFIRAVIFTCGGSRWQDLQTLCCTDGCSMTDLSALC; Human Relaxin-3/Insulin-like 5 chimeric mature polypeptide) | subnanomolar | no binding affinity | low nanomolar range | – | – |
| R3/I6: chimeric polypeptide: human relaxin-3 B-chain and INSL6 A-chain; mature polypeptide SEQ ID NO:24 (RAAPYGVRLCGREFIRAVIFTCGGSRWGYSEKCCLTGCTKEELSIAC; Human Relaxin-3/Insulin-like 6 chimeric mature polypeptide) | – | no binding affinity | – | 10 to 15 nM | 10 to 15 nM |
